B1: HC3B238 (CD3W246-HL-scFv-Fc x MHGB738-Fab-Fc) (bispecific antibody, human IgG1, kappa, L234A L235A)
scFv: EVQLVESGGGLVKPGGSLRLSCAASGFTFSRYNMNWVRQAPGKGLEWVSSISTSSNYIYYADSVKGRFTFSRDNAKNSLDLQMSGLRAEDTAIYYCTRGWGPFDYWGQGTLVTVSSGGSEGKSSGSGSESKSTGGSDIQMTQSPSSLSASVGDRVTITCRARQSIGTAIHWYQQKPGKAPKLLIKYASESISGVPSRFSGSGSGTDFTLTISSVQPEDFATYYCQQSGSWPYTFGQGTKLEIKEPKSSDKTHTCPPCPAPEAAGGPSVFLFPPKPKDTLMISRTPEVTCVVVSVSHEDPEVKFNWYVDGVEVHNAKTKPREEQYNSTYRVVSVLTVLHQDWLNGKEYKCKVSNKALPAPIEKTISKAKGQPREPQVYVYPPSREEMTKNQVSLTCLVKGFYPSDIAVEWESNGQPENNYKTTPPVLDSDGSFALVSKLTVDKSRWQQGNVFSCSVMHEALHNHYTQKSLSLSPG
heavy: QVQLQQSGPGLVKPSQTLSLTCAISGDSVSSNRAAWNWIRQSPSRGLEWLGRTYYRSKWYNDYAVSVKSRITINPDTSKNQISLQLNSVTPEDTAVYYCARVRPGIPFDYWGQGTPVTVSSASTKGPSVFPLAPSSKSTSGGTAALGCLVKDYFPEPVTVSWNSGALTSGVHTFPAVLQSSGLYSLSSVVTVPSSSLGTQTYICNVNHKPSNTKVDKKVEPKSCDKTHTCPPCPAPEAAGGPSVFLFPPKPKDTLMISRTPEVTCVVVSVSHEDPEVKFNWYVDGVEVHNAKTKPREEQYNSTYRVVSVLTVLHQDWLNGKEYKCKVSNKALPAPIEKTISKAKGQPREPQVYVLPPSREEMTKNQVSLLCLVKGFYPSDIAVEWESNGQPENNYLTWPPVLDSDGSFFLYSKLTVDKSRWQQGNVFSCSVMHEALHNHYTQKSLSLSPG
light: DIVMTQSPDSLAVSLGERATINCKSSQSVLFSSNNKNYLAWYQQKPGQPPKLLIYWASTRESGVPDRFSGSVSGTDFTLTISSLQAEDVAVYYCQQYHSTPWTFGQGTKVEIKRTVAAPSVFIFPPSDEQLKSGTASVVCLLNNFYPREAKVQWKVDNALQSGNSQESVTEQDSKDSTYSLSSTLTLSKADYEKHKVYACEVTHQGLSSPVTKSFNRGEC
B2: HC3B235 (CD3B219-LH-scFv-Fc x MHGB738-Fab-Fc) (bispecific antibody, human IgG1, kappa, L234A L235A)
scFv: QTVVTQEPSLTVSPGGTVTLTCRSSTGAVTTSNYANWVQQKPGQAPRGLIGGTNKRAPGTPARFSGSLLGGKAALTLSGVQPEDEAEYYCALWYSNLWVFGGGTKLTVLGGSEGKSSGSGSESKSTGGSEVQLVESGGGLVQPGGSLRLSCAASGFTFNTYAMNWVRQAPGKGLEWVARIRSKYNNYATYYAASVKGRFTISRDDSKNSLYLQMNSLKTEDTAVYYCVRHGNFGNSYVSWFAYWGQGTLVTVSSEPKSSDKTHTCPPCPAPEAAGGPSVFLFPPKPKDTLMISRTPEVTCVVVSVSHEDPEVKFNWYVDGVEVHNAKTKPREEQYNSTYRVVSVLTVLHQDWLNGKEYKCKVSNKALPAPIEKTISKAKGQPREPQVYVYPPSREEMTKNQVSLTCLVKGFYPSDIAVEWESNGQPENNYKTTPPVLDSDGSFALVSKLTVDKSRWQQGNVFSCSVMHEALHNHYTQKSLSLSPG
heavy: QVQLQQSGPGLVKPSQTLSLTCAISGDSVSSNRAAWNWIRQSPSRGLEWLGRTYYRSKWYNDYAVSVKSRITINPDTSKNQISLQLNSVTPEDTAVYYCARVRPGIPFDYWGQGTPVTVSSASTKGPSVFPLAPSSKSTSGGTAALGCLVKDYFPEPVTVSWNSGALTSGVHTFPAVLQSSGLYSLSSVVTVPSSSLGTQTYICNVNHKPSNTKVDKKVEPKSCDKTHTCPPCPAPEAAGGPSVFLFPPKPKDTLMISRTPEVTCVVVSVSHEDPEVKFNWYVDGVEVHNAKTKPREEQYNSTYRVVSVLTVLHQDWLNGKEYKCKVSNKALPAPIEKTISKAKGQPREPQVYVLPPSREEMTKNQVSLLCLVKGFYPSDIAVEWESNGQPENNYLTWPPVLDSDGSFFLYSKLTVDKSRWQQGNVFSCSVMHEALHNHYTQKSLSLSPG
light: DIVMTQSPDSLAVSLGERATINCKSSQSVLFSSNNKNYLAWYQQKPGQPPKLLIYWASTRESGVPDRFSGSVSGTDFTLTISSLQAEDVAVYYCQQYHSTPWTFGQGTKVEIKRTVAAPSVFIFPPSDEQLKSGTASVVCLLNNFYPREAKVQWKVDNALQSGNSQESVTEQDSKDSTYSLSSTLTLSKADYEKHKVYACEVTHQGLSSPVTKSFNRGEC
B3: HC3B236 (CD3B450-LH-scFv-Fc x MHGB738-Fab-Fc) (bispecific antibody, human IgG1, kappa, L234A L235A)
scFv: QSALTQPASVSGSPGQSITISCTGTSSNIGTYKFVSWYQQHPGKAPKVMIYEVSKRPSGVSNRFSGSKSGNTASLTISGLQAEDEADYYCVSYAGSGTLLFGGGTKLTVLGGSEGKSSGSGSESKSTGGSQVQLQQSGPGLVKPSQTLSLTCAISGDSVFNNNAAWSWIRQSPSRGLEWLGRTYYRSKWLYDYAVSVKSRITINPDTSKNQFSLQLNSVTPEDTAVYYCARGYSSSFDYWGQGTLVTVSSEPKSSDKTHTCPPCPAPEAAGGPSVFLFPPKPKDTLMISRTPEVTCVVVSVSHEDPEVKFNWYVDGVEVHNAKTKPREEQYNSTYRVVSVLTVLHQDWLNGKEYKCKVSNKALPAPIEKTISKAKGQPREPQVYVYPPSREEMTKNQVSLTCLVKGFYPSDIAVEWESNGQPENNYKTTPPVLDSDGSFALVSKLTVDKSRWQQGNVFSCSVMHEALHNHYTQKSLSLSPG
heavy: QVQLQQSGPGLVKPSQTLSLTCAISGDSVSSNRAAWNWIRQSPSRGLEWLGRTYYRSKWYNDYAVSVKSRITINPDTSKNQISLQLNSVTPEDTAVYYCARVRPGIPFDYWGQGTPVTVSSASTKGPSVFPLAPSSKSTSGGTAALGCLVKDYFPEPVTVSWNSGALTSGVHTFPAVLQSSGLYSLSSVVTVPSSSLGTQTYICNVNHKPSNTKVDKKVEPKSCDKTHTCPPCPAPEAAGGPSVFLFPPKPKDTLMISRTPEVTCVVVSVSHEDPEVKFNWYVDGVEVHNAKTKPREEQYNSTYRVVSVLTVLHQDWLNGKEYKCKVSNKALPAPIEKTISKAKGQPREPQVYVLPPSREEMTKNQVSLLCLVKGFYPSDIAVEWESNGQPENNYLTWPPVLDSDGSFFLYSKLTVDKSRWQQGNVFSCSVMHEALHNHYTQKSLSLSPG
light: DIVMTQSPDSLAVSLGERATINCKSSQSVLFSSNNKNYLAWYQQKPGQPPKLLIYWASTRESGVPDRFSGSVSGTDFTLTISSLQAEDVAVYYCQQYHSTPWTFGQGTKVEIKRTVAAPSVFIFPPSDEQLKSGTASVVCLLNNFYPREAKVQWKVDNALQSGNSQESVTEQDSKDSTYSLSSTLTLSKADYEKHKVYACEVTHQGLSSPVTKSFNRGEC
B4: HC3B237 (CD3W246-LH-scFv-Fc x MHGB738-Fab-Fc) (bispecific antibody, human IgG1, kappa, L234A L235A)
scFv: DIQMTQSPSSLSASVGDRVTITCRARQSIGTAIHWYQQKPGKAPKLLIKYASESISGVPSRFSGSGSGTDFTLTISSVQPEDFATYYCQQSGSWPYTFGQGTKLEIKGGSEGKSSGSGSESKSTGGSEVQLVESGGGLVKPGGSLRLSCAASGFTFSRYNMNWVRQAPGKGLEWVSSISTSSNYIYYADSVKGRFTFSRDNAKNSLDLQMSGLRAEDTAIYYCTRGWGPFDYWGQGTLVTVSSEPKSSDKTHTCPPCPAPEAAGGPSVFLFPPKPKDTLMISRTPEVTCVVVSVSHEDPEVKFNWYVDGVEVHNAKTKPREEQYNSTYRVVSVLTVLHQDWLNGKEYKCKVSNKALPAPIEKTISKAKGQPREPQVYVYPPSREEMTKNQVSLTCLVKGFYPSDIAVEWESNGQPENNYKTTPPVLDSDGSFALVSKLTVDKSRWQQGNVFSCSVMHEALHNHYTQKSLSLSPGK
heavy: QVQLQQSGPGLVKPSQTLSLTCAISGDSVSSNRAAWNWIRQSPSRGLEWLGRTYYRSKWYNDYAVSVKSRITINPDTSKNQISLQLNSVTPEDTAVYYCARVRPGIPFDYWGQGTPVTVSSASTKGPSVFPLAPSSKSTSGGTAALGCLVKDYFPEPVTVSWNSGALTSGVHTFPAVLQSSGLYSLSSVVTVPSSSLGTQTYICNVNHKPSNTKVDKKVEPKSCDKTHTCPPCPAPEAAGGPSVFLFPPKPKDTLMISRTPEVTCVVVSVSHEDPEVKFNWYVDGVEVHNAKTKPREEQYNSTYRVVSVLTVLHQDWLNGKEYKCKVSNKALPAPIEKTISKAKGQPREPQVYVLPPSREEMTKNQVSLLCLVKGFYPSDIAVEWESNGQPENNYLTWPPVLDSDGSFFLYSKLTVDKSRWQQGNVFSCSVMHEALHNHYTQKSLSLSPG
light: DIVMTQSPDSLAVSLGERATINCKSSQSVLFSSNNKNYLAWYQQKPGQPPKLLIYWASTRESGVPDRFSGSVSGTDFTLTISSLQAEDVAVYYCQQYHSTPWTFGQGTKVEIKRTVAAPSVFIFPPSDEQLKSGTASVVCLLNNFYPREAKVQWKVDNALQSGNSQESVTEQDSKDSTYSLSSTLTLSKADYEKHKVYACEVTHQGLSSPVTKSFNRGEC
B5: HC3B232 (CD3W246-LH-scFv-Fc x MHGB732-Fab-Fc) (bispecific antibody, human IgG1, kappa, L234A L235A)
scFv: DIQMTQSPSSLSASVGDRVTITCRARQSIGTAIHWYQQKPGKAPKLLIKYASESISGVPSRFSGSGSGTDFTLTISSVQPEDFATYYCQQSGSWPYTFGQGTKLEIKGGSEGKSSGSGSESKSTGGSEVQLVESGGGLVKPGGSLRLSCAASGFTFSRYNMNWVRQAPGKGLEWVSSISTSSNYIYYADSVKGRFTFSRDNAKNSLDLQMSGLRAEDTAIYYCTRGWGPFDYWGQGTLVTVSSEPKSSDKTHTCPPCPAPEAAGGPSVFLFPPKPKDTLMISRTPEVTCVVVSVSHEDPEVKFNWYVDGVEVHNAKTKPREEQYNSTYRVVSVLTVLHQDWLNGKEYKCKVSNKALPAPIEKTISKAKGQPREPQVYVYPPSREEMTKNQVSLTCLVKGFYPSDIAVEWESNGQPENNYKTTPPVLDSDGSFALVSKLTVDKSRWQQGNVFSCSVMHEALHNHYTQKSLSLSPGK
heavy: QVQLQQSGPGLVKPSQTLSLTCAISGDSVSSNSAAWNWIRQSPSRGLEWLGRTYYRSKWYNDYAVSVKSRITINPDTSKNQISLQLNSVTPEDTAVYYCAGDRRYGIVGLPFAYWGQGTLVTVSSASTKGPSVFPLAPSSKSTSGGTAALGCLVKDYFPEPVTVSWNSGALTSGVHTFPAVLQSSGLYSLSSVVTVPSSSLGTQTYICNVNHKPSNTKVDKKVEPKSCDKTHTCPPCPAPEAAGGPSVFLFPPKPKDTLMISRTPEVTCVVVSVSHEDPEVKFNWYVDGVEVHNAKTKPREEQYNSTYRVVSVLTVLHQDWLNGKEYKCKVSNKALPAPIEKTISKAKGQPREPQVYVLPPSREEMTKNQVSLLCLVKGFYPSDIAVEWESNGQPENNYLTWPPVLDSDGSFFLYSKLTVDKSRWQQGNVFSCSVMHEALHNHYTQKSLSLSPG
light: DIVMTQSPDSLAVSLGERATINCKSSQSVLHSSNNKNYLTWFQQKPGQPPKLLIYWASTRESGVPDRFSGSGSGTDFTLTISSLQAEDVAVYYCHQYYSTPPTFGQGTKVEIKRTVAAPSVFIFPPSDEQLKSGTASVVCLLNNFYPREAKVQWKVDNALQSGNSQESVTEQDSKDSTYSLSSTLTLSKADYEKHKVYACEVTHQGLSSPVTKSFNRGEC
B6: HC3B231 (CD3B450-LH-scFv-Fc x MHGB732-Fab-Fc) (bispecific antibody, human IgG1, kappa, L234A L235A)
scFv: QSALTQPASVSGSPGQSITISCTGTSSNIGTYKFVSWYQQHPGKAPKVMIYEVSKRPSGVSNRFSGSKSGNTASLTISGLQAEDEADYYCVSYAGSGTLLFGGGTKLTVLGGSEGKSSGSGSESKSTGGSQVQLQQSGPGLVKPSQTLSLTCAISGDSVFNNNAAWSWIRQSPSRGLEWLGRTYYRSKWLYDYAVSVKSRITINPDTSKNQFSLQLNSVTPEDTAVYYCARGYSSSFDYWGQGTLVTVSSEPKSSDKTHTCPPCPAPEAAGGPSVFLFPPKPKDTLMISRTPEVTCVVVSVSHEDPEVKFNWYVDGVEVHNAKTKPREEQYNSTYRVVSVLTVLHQDWLNGKEYKCKVSNKALPAPIEKTISKAKGQPREPQVYVYPPSREEMTKNQVSLTCLVKGFYPSDIAVEWESNGQPENNYKTTPPVLDSDGSFALVSKLTVDKSRWQQGNVFSCSVMHEALHNHYTQKSLSLSPG
heavy: QVQLQQSGPGLVKPSQTLSLTCAISGDSVSSNSAAWNWIRQSPSRGLEWLGRTYYRSKWYNDYAVSVKSRITINPDTSKNQISLQLNSVTPEDTAVYYCAGDRRYGIVGLPFAYWGQGTLVTVSSASTKGPSVFPLAPSSKSTSGGTAALGCLVKDYFPEPVTVSWNSGALTSGVHTFPAVLQSSGLYSLSSVVTVPSSSLGTQTYICNVNHKPSNTKVDKKVEPKSCDKTHTCPPCPAPEAAGGPSVFLFPPKPKDTLMISRTPEVTCVVVSVSHEDPEVKFNWYVDGVEVHNAKTKPREEQYNSTYRVVSVLTVLHQDWLNGKEYKCKVSNKALPAPIEKTISKAKGQPREPQVYVLPPSREEMTKNQVSLLCLVKGFYPSDIAVEWESNGQPENNYLTWPPVLDSDGSFFLYSKLTVDKSRWQQGNVFSCSVMHEALHNHYTQKSLSLSPG
light: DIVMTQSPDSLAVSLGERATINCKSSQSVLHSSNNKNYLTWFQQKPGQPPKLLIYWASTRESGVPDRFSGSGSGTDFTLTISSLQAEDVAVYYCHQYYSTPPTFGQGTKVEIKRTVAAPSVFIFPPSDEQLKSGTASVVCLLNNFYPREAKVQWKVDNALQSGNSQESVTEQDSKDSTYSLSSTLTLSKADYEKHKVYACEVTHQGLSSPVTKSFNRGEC

The assay addresses HLA-G on NCI-H2009-b2m target cells (human, UniProt P17693 25-338). The assay is described as follows: cell-based or functional assay.
Take B1: the “Cytotoxicity, EC50 (M); T cell-mediated cytotoxicity against NCI-H2009-b2m cells, 72 hr, E:T 3:1” value (from here on “Cytotoxicity, EC50 (M)”) came out at 1.73e-11 M.
B2: the “Cytotoxicity, EC50 (M)” value amounted to 8.37e-11 M.
With B3, the “Cytotoxicity, EC50 (M)” value came out at 4.54e-09 M.
For B4, the “Cytotoxicity, EC50 (M)” value was found to be 1.33e-10 M.
For B5 the value was 6.77e-12 M.
Regarding B6, the “Cytotoxicity, EC50 (M)” value was 1.26e-10 M.

Values taken from patent US20220033505A1 (Janssen / Centocor, published 2022).
